Results reported in CN110003338A (BEIJING MIANYI FANGZHOU MEDICINE TECH CO LTD, dated 2019).

T1: 人OX40 (expressed on cells: transfected 293T cells; HEK::OX40 100B5 cells) (human, UniProt P43489 29-277)
T1 construct: whole, on cells; also called hOX40
T1 sequence (looked up): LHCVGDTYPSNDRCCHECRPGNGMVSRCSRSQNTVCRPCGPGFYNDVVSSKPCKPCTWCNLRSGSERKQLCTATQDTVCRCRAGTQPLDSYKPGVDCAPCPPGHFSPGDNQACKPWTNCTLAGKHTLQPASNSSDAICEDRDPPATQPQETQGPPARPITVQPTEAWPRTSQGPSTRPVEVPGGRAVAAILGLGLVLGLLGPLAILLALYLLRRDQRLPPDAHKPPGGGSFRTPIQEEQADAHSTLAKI

B1: 抗OX40单克隆抗体4F2 (antibody, V domains shown)
VH: DVQLQESGPGLVKPSQSLSLTCSVTGYSITSGYNWNWIRQFPGNKLEWMGYISYDGSNNYNPSLKNRISITRDTSKNQFFLKLNSVTTEDTATYYCARQGSSGHFYYAMDYWGQGTSVTVSS
VL: DIVMTQAHKFMSTSVGDRVSITCKASQDVSSAVAWYQQKPGQSPKLLIYWASIRHTGVPDRFTGSGSGTDYTLTISSVQAEDLALYYCQQHYSTPWTFGGGTKLEIK
notes: Mouse hybridoma monoclonal antibody (Balb/c x SP2/0); Constant regions are mouse; it was detected with anti-mouse IgG Fc and mIgG1 served as isotype control
B2: 抗OX40单克隆抗体6A6 (antibody, V domains shown)
VH: EVQLQQSGPELVKPGASVKISCKASGYSFTGYYMNWVKQSPEKSLEWIGEINPSTGGTTYNQKFKAKATLTVDKSSSTAYMQLKSLTSEDSAVYYCARSGLPYYDVDYWGQGTTLTVSS
VL: DIQMTQSPSSLSASLGERVSLTCRASQEISGYLSWLHQKPDGTIKRLIYAASTLDSGVPKRFSGSRSGSDYSLTISSLESEDFADYYCLQYASYPLTFGAGTNLELK
notes: Mouse hybridoma monoclonal antibody

Molecular target: T1, 人OX40 (expressed on cells: transfected …)
Assay: Flow cytometry on 293T cells expressing human OX40, antibody 1 µg/mL final, APC anti-mouse IgG Fc

| Binder | binding result |
| --- | --- |
| B1 | binds |
| B2 | binds |
